Assay results: IntAct's records for PubMed 35512704

B1: Speckle-type POZ protein (Homo sapiens), O43791 (parent)
chain: MSRVPSPPPPAEMSSGPVAESWCYTQIKVVKFSYMWTINNFSFCREEMGEVIKSSTFSSGANDKLKWCLRVNPKGLDEESKDYLSLYLLLVSCPKSEVRAKFKFSILNAKGEETKAMESQRAYRFVQGKDWGFKKFIRRDFLLDEANGLLPDDKLTLFCEVSVVQDSVNISGQNTMNMVKVPECRLADELGGLWENSRFTDCCLCVAGQEFQAHKAILAARSPVFSAMFEHEMEESKKNRVEINDVEPEVFKEMMCFIYTGKAPNLDKMADDLLAAADKYALERLKVMCEDALCSNLSVENAAEILILADLHSADQLKTQAVDFINYHASDVLETSGWKSMVVSHPHLVAEAYRSLASAQCPFLGPPRKRLKQS
partner: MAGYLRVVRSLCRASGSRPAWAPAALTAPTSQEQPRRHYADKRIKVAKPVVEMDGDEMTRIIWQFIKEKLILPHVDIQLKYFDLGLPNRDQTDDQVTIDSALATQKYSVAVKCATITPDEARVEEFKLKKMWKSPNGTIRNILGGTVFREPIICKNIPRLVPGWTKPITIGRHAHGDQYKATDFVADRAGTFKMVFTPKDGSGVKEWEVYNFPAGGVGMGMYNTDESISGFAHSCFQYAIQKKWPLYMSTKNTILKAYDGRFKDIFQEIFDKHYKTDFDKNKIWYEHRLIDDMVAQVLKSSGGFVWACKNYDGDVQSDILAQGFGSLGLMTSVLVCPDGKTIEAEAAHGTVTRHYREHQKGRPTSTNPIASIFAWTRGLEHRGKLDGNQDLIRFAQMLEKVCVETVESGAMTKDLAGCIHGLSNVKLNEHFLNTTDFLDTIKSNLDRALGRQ
B2: Speckle-type POZ protein (Homo sapiens), O43791 (parent)
chain: B1 chain
partner: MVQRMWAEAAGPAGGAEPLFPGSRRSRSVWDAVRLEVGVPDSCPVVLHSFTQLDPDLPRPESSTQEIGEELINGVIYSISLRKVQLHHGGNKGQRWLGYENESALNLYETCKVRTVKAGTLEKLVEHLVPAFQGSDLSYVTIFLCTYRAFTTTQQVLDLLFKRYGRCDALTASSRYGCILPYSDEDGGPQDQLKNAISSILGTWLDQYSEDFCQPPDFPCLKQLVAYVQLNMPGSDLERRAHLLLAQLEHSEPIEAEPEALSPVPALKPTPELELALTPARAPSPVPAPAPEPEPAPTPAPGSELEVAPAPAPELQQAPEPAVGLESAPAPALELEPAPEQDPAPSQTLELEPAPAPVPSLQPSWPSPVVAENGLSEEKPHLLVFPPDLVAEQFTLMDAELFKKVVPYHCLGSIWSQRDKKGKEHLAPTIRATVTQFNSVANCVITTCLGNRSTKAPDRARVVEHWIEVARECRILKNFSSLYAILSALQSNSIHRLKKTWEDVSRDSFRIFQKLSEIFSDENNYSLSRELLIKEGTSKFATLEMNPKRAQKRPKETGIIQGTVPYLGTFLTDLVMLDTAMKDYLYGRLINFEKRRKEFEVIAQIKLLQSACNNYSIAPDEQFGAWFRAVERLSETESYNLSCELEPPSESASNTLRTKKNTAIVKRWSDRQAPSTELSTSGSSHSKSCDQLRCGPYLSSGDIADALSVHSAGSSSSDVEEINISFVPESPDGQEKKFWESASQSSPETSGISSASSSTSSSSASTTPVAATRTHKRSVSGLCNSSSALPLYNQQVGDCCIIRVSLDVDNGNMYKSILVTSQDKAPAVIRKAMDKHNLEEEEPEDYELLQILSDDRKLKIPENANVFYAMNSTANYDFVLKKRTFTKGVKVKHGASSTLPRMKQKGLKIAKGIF
B3: Speckle-type POZ protein (Homo sapiens), O43791 (parent)
chain: B1 chain
partner: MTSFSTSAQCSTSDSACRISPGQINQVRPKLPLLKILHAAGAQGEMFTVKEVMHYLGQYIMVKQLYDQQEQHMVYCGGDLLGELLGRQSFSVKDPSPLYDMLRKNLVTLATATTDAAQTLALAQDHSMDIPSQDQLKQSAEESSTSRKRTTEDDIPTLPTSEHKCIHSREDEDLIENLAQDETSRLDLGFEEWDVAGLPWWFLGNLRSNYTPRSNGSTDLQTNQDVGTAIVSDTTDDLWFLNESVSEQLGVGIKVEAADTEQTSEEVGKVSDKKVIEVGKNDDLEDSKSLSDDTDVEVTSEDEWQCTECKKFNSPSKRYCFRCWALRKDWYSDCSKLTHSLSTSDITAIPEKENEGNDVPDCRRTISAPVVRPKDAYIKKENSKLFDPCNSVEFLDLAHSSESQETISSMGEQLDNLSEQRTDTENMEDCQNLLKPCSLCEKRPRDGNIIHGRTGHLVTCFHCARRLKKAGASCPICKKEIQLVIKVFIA
B4: Speckle-type POZ protein (Homo sapiens), O43791 (parent)
chain: B1 chain
partner: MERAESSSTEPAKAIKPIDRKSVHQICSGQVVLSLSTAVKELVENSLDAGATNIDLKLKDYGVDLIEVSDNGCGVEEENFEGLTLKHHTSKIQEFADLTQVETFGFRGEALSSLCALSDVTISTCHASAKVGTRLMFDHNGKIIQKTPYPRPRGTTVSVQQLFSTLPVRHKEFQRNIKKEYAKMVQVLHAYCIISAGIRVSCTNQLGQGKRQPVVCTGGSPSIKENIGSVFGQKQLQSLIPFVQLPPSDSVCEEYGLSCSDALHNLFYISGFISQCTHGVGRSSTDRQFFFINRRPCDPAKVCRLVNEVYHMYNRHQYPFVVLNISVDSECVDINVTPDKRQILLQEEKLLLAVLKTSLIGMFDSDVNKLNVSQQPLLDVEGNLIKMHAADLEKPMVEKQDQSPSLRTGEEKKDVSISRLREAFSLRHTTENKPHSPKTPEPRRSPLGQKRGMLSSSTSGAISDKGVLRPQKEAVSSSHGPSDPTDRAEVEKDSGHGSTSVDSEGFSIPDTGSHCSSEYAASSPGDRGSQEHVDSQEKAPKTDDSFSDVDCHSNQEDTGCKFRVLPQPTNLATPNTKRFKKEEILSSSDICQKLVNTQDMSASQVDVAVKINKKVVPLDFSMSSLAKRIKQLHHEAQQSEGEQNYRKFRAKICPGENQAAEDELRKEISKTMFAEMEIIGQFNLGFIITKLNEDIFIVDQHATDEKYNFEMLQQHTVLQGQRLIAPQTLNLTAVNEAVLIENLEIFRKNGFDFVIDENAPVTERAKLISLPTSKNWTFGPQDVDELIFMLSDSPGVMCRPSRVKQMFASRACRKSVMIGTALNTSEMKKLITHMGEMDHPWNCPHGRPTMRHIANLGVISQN
B5: Speckle-type POZ protein (Homo sapiens), O43791 (parent)
chain: B1 chain
partner: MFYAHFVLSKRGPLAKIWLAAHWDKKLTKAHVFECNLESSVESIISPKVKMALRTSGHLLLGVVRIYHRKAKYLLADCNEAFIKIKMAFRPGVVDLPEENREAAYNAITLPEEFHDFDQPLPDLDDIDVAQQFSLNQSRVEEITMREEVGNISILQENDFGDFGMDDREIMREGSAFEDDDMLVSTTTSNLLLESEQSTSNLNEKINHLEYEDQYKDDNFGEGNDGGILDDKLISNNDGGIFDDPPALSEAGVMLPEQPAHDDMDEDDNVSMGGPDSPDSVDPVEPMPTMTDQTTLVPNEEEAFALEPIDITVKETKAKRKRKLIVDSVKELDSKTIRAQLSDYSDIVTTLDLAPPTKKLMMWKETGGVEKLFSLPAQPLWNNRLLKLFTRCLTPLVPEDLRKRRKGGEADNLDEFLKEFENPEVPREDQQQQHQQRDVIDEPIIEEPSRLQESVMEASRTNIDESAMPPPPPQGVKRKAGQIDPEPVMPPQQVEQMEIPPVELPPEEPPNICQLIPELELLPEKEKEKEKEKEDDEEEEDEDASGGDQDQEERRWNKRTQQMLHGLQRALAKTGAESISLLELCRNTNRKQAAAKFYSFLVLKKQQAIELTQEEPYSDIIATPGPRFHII
B6: Speckle-type POZ protein (Homo sapiens), O43791 (parent)
chain: B1 chain
partner: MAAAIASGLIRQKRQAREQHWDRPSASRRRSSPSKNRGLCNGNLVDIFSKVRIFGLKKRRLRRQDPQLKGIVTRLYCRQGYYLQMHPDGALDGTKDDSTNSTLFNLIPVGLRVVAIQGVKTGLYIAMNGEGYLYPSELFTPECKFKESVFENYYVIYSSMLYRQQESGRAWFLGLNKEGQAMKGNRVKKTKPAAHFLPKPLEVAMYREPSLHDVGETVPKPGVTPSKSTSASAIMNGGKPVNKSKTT
B7: Speckle-type POZ protein (Homo sapiens), O43791 (parent)
chain: B1 chain
partner: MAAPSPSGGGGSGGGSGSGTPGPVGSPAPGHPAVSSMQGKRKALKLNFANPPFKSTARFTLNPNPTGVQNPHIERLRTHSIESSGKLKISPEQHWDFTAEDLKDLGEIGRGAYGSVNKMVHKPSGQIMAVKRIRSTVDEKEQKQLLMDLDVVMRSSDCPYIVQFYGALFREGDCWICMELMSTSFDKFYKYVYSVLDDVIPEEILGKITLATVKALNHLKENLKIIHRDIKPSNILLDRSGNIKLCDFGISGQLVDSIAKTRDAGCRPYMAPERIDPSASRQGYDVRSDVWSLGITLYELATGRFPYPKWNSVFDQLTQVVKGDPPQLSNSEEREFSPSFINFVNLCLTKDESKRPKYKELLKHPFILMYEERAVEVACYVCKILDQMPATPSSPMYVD

Variants of: B1
Details: with idhp_human IDH2, P48735

Row | effect of a mutation on the interaction | Variant
1 | with no effect | F102C

Variants of: B1
Details: with idhp_human IDH2, P48735
Remark: another data set of the same source

Row | effect of a mutation on the interaction | Variant
2 | with no effect | F133L

Variants of: B1
Details: with idhp_human IDH2, P48735
Remark: another data set of the same source

Row | effect of a mutation on the interaction | Variant
3 | with no effect | F133V

Variants of: B2
Details: with gnds_human RALGDS

Row | effect of a mutation on the interaction | Variant
4 | with no effect | F133V

Variants of: B2
Details: with gnds_human RALGDS
Remark: another data set of the same source

Row | effect of a mutation on the interaction | Variant
5 | with no effect | F133L

Variants of: B2
Details: with gnds_human RALGDS
Remark: another data set of the same source

Row | effect of a mutation on the interaction | Variant
6 | with no effect | Y87C

Variants of: B2
Details: with gnds_human RALGDS
Remark: another data set of the same source

Row | effect of a mutation on the interaction | Variant
7 | with no effect | F102C

Variants of: B3
Details: with mdm4_human MDM4, O15151

Row | effect of a mutation on the interaction | Variant
8 | with no effect | Y87C

Variants of: B3
Details: with mdm4_human MDM4, O15151
Remark: another data set of the same source

Row | effect of a mutation on the interaction | Variant
9 | with no effect | F133V

Variants of: B3
Details: with mdm4_human MDM4, O15151
Remark: another data set of the same source

Row | effect of a mutation on the interaction | Variant
10 | with no effect | F133L

Variants of: B3
Details: with mdm4_human MDM4, O15151
Remark: another data set of the same source

Row | effect of a mutation on the interaction | Variant
11 | with no effect | F102C

Variants of: B4
Details: with pms2_human PMS2, P54278

Row | effect of a mutation on the interaction | Variant
12 | with no effect | Y87C

Variants of: B4
Details: with pms2_human PMS2, P54278
Remark: another data set of the same source

Row | effect of a mutation on the interaction | Variant
13 | with no effect | F102C

Variants of: B4
Details: with pms2_human PMS2, P54278
Remark: another data set of the same source

Row | effect of a mutation on the interaction | Variant
14 | with no effect | F133V

Variants of: B4
Details: with pms2_human PMS2, P54278
Remark: another data set of the same source

Row | effect of a mutation on the interaction | Variant
15 | with no effect | F133L

Variants of: B5
Details: with rad21_human RAD21, O60216

Row | effect of a mutation on the interaction | Variant
16 | with no effect | F102C

Variants of: B5
Details: with rad21_human RAD21, O60216
Remark: another data set of the same source

Row | effect of a mutation on the interaction | Variant
17 | with no effect | Y87C

Variants of: B5
Details: with rad21_human RAD21, O60216
Remark: another data set of the same source

Row | effect of a mutation on the interaction | Variant
18 | with no effect | F133L

Variants of: B5
Details: with rad21_human RAD21, O60216
Remark: another data set of the same source

Row | effect of a mutation on the interaction | Variant
19 | with no effect | F133V

Variants of: B6
Details: with fgf14_human FGF14, Q92915

Row | effect of a mutation on the interaction | Variant
20 | with no effect | F102C

Variants of: B6
Details: with fgf14_human FGF14, Q92915
Remark: another data set of the same source

Row | effect of a mutation on the interaction | Variant
21 | with no effect | Y87C

Variants of: B6
Details: with fgf14_human FGF14, Q92915
Remark: another data set of the same source

Row | effect of a mutation on the interaction | Variant
22 | with no effect | F133V

Variants of: B6
Details: with fgf14_human FGF14, Q92915
Remark: another data set of the same source

Row | effect of a mutation on the interaction | Variant
23 | with no effect | F133L

Variants of: B7
Details: with mp2k4_human MAP2K4, P45985

Row | effect of a mutation on the interaction | Variant
24 | with no effect | Y87C
